Earlier results as cited in publication PMC8810291.
pKd: −log10 of the molar value.

Target: FNIP1 (Homo sapiens) (UniProt Q8TF40)
Sequence (Q8TF40 whole entry): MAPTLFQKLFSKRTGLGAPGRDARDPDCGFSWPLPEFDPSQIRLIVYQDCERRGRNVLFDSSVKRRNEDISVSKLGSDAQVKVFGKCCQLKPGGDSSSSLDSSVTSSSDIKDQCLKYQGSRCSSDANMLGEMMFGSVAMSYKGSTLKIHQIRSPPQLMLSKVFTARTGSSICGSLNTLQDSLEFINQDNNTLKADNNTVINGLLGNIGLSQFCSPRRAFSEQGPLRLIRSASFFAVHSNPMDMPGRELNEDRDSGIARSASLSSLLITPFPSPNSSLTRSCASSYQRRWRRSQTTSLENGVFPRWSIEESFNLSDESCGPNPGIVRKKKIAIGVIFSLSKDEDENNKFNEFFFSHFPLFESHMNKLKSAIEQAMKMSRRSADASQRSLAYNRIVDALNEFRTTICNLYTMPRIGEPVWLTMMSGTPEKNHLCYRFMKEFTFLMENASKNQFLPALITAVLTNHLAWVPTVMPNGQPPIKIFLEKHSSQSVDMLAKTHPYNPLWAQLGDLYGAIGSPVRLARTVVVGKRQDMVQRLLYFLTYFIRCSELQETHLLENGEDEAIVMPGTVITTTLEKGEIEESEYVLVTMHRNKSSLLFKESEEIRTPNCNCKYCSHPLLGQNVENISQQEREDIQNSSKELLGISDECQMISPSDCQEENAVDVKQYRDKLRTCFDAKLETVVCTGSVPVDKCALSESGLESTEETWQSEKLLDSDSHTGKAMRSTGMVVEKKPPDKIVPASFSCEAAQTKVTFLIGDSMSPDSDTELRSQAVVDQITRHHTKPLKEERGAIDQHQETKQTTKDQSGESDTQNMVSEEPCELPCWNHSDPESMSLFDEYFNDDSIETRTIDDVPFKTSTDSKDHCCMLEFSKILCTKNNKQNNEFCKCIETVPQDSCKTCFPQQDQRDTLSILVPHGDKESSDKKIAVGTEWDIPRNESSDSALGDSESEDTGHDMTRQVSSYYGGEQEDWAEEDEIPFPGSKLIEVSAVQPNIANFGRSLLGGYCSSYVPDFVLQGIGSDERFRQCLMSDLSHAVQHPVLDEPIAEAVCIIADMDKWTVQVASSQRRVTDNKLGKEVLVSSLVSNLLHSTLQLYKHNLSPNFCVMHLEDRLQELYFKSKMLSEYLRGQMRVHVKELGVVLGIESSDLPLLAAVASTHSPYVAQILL

Sequence of FEM1B (Q9UK73 whole entry): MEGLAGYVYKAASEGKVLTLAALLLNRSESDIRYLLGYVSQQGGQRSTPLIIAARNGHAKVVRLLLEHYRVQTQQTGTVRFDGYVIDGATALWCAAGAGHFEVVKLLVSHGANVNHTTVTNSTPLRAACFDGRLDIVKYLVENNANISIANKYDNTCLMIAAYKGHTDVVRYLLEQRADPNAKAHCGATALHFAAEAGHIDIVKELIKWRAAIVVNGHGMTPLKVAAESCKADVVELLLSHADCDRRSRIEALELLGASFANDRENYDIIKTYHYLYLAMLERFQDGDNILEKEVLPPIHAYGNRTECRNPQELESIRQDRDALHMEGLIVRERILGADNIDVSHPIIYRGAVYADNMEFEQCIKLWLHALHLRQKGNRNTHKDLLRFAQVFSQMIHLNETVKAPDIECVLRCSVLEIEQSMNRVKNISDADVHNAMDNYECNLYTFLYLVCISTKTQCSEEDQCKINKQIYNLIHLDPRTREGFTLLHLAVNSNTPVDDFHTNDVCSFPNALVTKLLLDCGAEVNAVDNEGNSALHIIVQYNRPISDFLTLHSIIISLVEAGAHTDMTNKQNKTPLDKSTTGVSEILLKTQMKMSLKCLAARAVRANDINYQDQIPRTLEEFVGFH

For FEM1B (from UniProt Q9UK73), the pKd is listed as 7.70.
